Assay results: the supplement of paper PMC10201428
± gives the standard deviation of the averaged measurements.

B1: library; a variant is named by its letters at N, in order (parent)
chain: AATGTTGTTGATGCAACCATAAAGTGATATTTAATAATTATTTATAATCAGCAACTTAACCACAAAACAACCATATATTGATATNTCACAAAACAACCATAANTTGATATTTTTGTGAATCGAGTATTTCAGCAAAACTACTGCAGTAAGAA

Legend:
[1] = variants of: B1; test: relative integration efficiency (T-LR orientation) vs wild-type transposon end (log2 (normalized fold change)); transposon end mutated: left end; higher = more efficient transposition; conditions: with VchCAST RNA-guided transposition machinery (E. coli BL21(DE3) host, lacZ target)
Summary of the method: (§1)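 Relative integration efficiency is a fold change of output over input barcode abundance, normalised to reference barcodes and log-transformed. Input plasmids and genomic integration junctions were PCR-amplified and Illumina-sequenced from E. coli BL21(DE3) co-transformed with a T7-driven effector plasmid and pUC57 donor pools of 1549 left-end or 1849 right-end transposon variants. Plating was done with 0.1 mM IPTG at 37°C for 18 h, with two biological output replicates and four reference barcodes.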

[2] = variants of: B1; test: relative integration efficiency (T-RL orientation) vs wild-type transposon end (log2 (normalized fold change)); transposon end mutated: left end; higher = more efficient transposition; conditions: with VchCAST RNA-guided transposition machinery (E. coli BL21(DE3) host, lacZ target)
Summary of the method: as §1

Row | Variant | relative integration efficiency (log2) [1] | relative integration efficiency (log2) [2]
1 | AATGTTGTTGATGCAACCATTTTCTGATATTTAATAATTATTTATAATCAGCAACTTAACCACAAAACAACCATATATTGATATCTCACAAAACAACCATAAGTTGATATTTTTGTGAATCGAGTATTTCAGCAAAACTACTGCAGTAAGAA [CG A21T A22T A23T G24C] | -0.979 ± 0.79 | -0.775 ± 0.46
2 | AATGTTGTTGATGCAACCATACCTGGATATTTAATAATTATTTATAATCAGCAACTTAACCACAAAACAACCATATATTGATATCTCACAAAACAACCATAAGTTGATATTTTTGTGAATCGAGTATTTCAGCAAAACTACTGCAGTAAGAA [CG A22C A23C G24T T25G] | -2.32 ± 0.92 | -2.89 ± 0.82
3 | AATGTTGTTGATGCAACCTATTAGTGATATTTAATAATTATTTATAATCAGCAACTTAACCACAAAACAACCATATATTGATATCTCACAAAACAACCATAAGTTGATATTTTTGTGAATCGAGTATTTCAGCAAAACTACTGCAGTAAGAA [CG A19T T20A A21T A22T] | -1.03 ± 0.48 | -1.21 ± 0.46
4 | AATGTTGTTGATGCAACCATATATTGATATCTCATAATTATTTATAATCAGCAACTTAACCACAAAACAACCATATATTGATATCTCACAAAACAACCATAAGTTGATATTTTTGTGAATCGAGTATTTCAGCAAAACTACTGCAGTAAGAA [CG A22T G24T T31C A33C] | -0.141 ± 0.18 | -0.0346 ± 0.14
5 | AATGTTGTTGATGCAACCATCAAGTGATATTTAATAATTATTTATAATCAGCAACTTAACCACAAAACAACCATATATTGATATCTCACAAAACAACCATAAGTTGATATTTTTGTGAATCGAGTATTTCAGCAAAACTACTGCAGTAAGAA [CG A21C] | -1.47 ± 0.6 | -0.867 ± 0.55
6 | AATGTTGTTGATGCAACCATGAAGTGATATTTAATAATTATTTATAATCAGCAACTTAACCACAAAACAACCATATATTGATATCTCACAAAACAACCATAAGTTGATATTTTTGTGAATCGAGTATTTCAGCAAAACTACTGCAGTAAGAA [CG A21G] | -0.166 ± 0.32 | -0.412 ± 0.49
7 | AATGTTGTTGATGCAACCATTAAGTGATATTTAATAATTATTTATAATCAGCAACTTAACCACAAAACAACCATATATTGATATCTCACAAAACAACCATAAGTTGATATTTTTGTGAATCGAGTATTTCAGCAAAACTACTGCAGTAAGAA [CG A21T] | -0.384 ± 0.81 | -0.164 ± 0.16
8 | AATGTTGTTGATGCAACCATTTAGTGATATTTAATAATTATTTATAATCAGCAACTTAACCACAAAACAACCATATATTGATATCTCACAAAACAACCATAAGTTGATATTTTTGTGAATCGAGTATTTCAGCAAAACTACTGCAGTAAGAA [CG A21T A22T] | -0.163 ± 0.75 | -0.172 ± 0.32
9 | AATGTTGTTGATGCAACCATCAAGTGATATTTAATAATTATTTATAATCAGCAACTTAACCACAAAACAACCATCTATTGATATCTCACAAAACAACCATCAGTTGATATTTTTGTGAATCGAGTATTTCAGCAAAACTACTGCAGTAAGAA [CG A21C A75C A101C] | -3.75 ± 1.3 | -3.08 ± 0.72
10 | AATGTTGTTGATGCAACCATCCCTTGATATTTAATAATTATTTATAATCAGCAACTTAACCACAAAACAACCATATATTGATATCTCACAAAACAACCATAAGTTGATATTTTTGTGAATCGAGTATTTCAGCAAAACTACTGCAGTAAGAA [CG A21C A22C A23C G24T] | -0.914 ± 0.79 | -1.03 ± 0.74
11 | AATGTTGTTGATGCAACCATATTCAGATATTTAATAATTATTTATAATCAGCAACTTAACCACAAAACAACCATATATTGATATCTCACAAAACAACCATAAGTTGATATTTTTGTGAATCGAGTATTTCAGCAAAACTACTGCAGTAAGAA [CG A22T A23T G24C T25A] | -1.61 ± 0.58 | -1.21 ± 0.56
12 | AATGTTGTTGATGCAACCATATTGTGATATTTAATAATTATTTATAATCAGCAACTTAACCACAAAACAACCATATATTGATATCTCACAAAACAACCATAAGTTGATATTTTTGTGAATCGAGTATTTCAGCAAAACTACTGCAGTAAGAA [CG A22T A23T] | -0.158 ± 0.56 | -0.421 ± 0.27
13 | AATGTTGTTGATGCAACCATATATTGATATCTCATAATTATTTATAATCAGCAACTTAACCACAAAACACCCATAAATTGATAATTAACAAAACAACCATAAGTTGATATTTTTGTGAATCGAGTATTTCAGCAAAACTACTGCAGTAAGAA [TG A22T G24T T31C A33C A70C T76A T84A C87A] | -0.478 ± 0.83 | -0.488 ± 0.46
14 | AATGTTGTTGATGCAACCATATAGTGATATTTAATAATTATTTATAATCAGCAACTTAACCACAAAACAACCATATATTGATATCTCACAAAACAACCATAAGTTGATATTTTTGTGAATCGAGTATTTCAGCAAAACTACTGCAGTAAGAA [CG A22T] | 0.128 ± 0.29 | 0.0984 ± 0.17
15 | AATGTTGTTGATGCAACCATACAGTGATATTTAATAATTATTTATAATCAGCAACTTAACCACAAAACAACCATATATTGATATCTCACAAAACAACCATAAGTTGATATTTTTGTGAATCGAGTATTTCAGCAAAACTACTGCAGTAAGAA [CG A22C] | -1.26 ± 0.71 | -1.07 ± 0.48
16 | AATGTTGTTGATGCAACCATAGAGTGATATTTAATAATTATTTATAATCAGCAACTTAACCACAAAACAACCATATATTGATATCTCACAAAACAACCATAAGTTGATATTTTTGTGAATCGAGTATTTCAGCAAAACTACTGCAGTAAGAA [CG A22G] | -1.1 ± 1.1 | -0.733 ± 0.88
17 | AATGTTGTTGATGCAACCATCCAGTGATATTTAATAATTATTTATAATCAGCAACTTAACCACAAAACAACCATATATTGATATCTCACAAAACAACCATAAGTTGATATTTTTGTGAATCGAGTATTTCAGCAAAACTACTGCAGTAAGAA [CG A21C A22C] | -1.77 ± 0.64 | -1.82 ± 0.43
18 | AATGTTGTTGATGCAACCATACCGTGATATTTAATAATTATTTATAATCAGCAACTTAACCACAAAACAACCATATATTGATATCTCACAAAACAACCATAAGTTGATATTTTTGTGAATCGAGTATTTCAGCAAAACTACTGCAGTAAGAA [CG A22C A23C] | -1.74 ± 0.31 | -1.42 ± 0.42
19 | AATGTTGTTGATGCAACCATTAAGTGATATTTAATAATTATTTATAATCAGCAACTTAACCACAAAACAACCATTTATTGATATCTCACAAAACAACCATTAGTTGATATTTTTGTGAATCGAGTATTTCAGCAAAACTACTGCAGTAAGAA [CG A21T A75T A101T] | -1.38 ± 0.99 | -1.31 ± 0.37
